Broadly, the Kd is the constant that tells how readily two partners part at equilibrium. What is called koff is the first-order rate constant of dissociation. For orientation: kon means the rate constant with which the complex forms.

Numbering of substitutions follows the chain as printed.

The source of these data is patent publication US20130288305A1 (AVEO PHARMACEUTICALS, published 2013).

In experiment [1] the target is T1, recombinant human FGFR2 beta (IIIb)/Fc in which the Fc region was removed enzymatically (human, UniProt P21802-3 152-378, limits assumed).
T1 construct: also called rhFGFR2β-IIIb-cleaved; monomeric recombinant human FGFR2 beta IIIb
T1 sequence (P21802 other isoform, or with tags, fused parts or gaps limits assumed): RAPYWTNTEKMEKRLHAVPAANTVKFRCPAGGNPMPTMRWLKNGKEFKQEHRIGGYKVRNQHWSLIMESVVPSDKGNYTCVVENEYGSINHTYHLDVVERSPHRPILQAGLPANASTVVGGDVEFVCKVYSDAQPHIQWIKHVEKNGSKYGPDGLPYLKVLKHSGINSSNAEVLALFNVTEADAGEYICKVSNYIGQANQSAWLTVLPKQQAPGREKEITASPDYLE
As to the kind of experiment: SPR (Biacore T100), antibody captured on anti-human IgG Fc, rhFGFR2β-IIIb-cleaved as analyte, 25 C. On the procedure:
(§1) Goat anti-human IgG Fc (Jackson ImmunoResearch, Catalog No. 109-005-098) was immobilized on carboxymethylated dextran CM4 sensor chips (Biacore) by amine coupling (Biacore) using a standard coupling protocol according to the vendor's instructions. The analyses were performed at 25° C. and 37° C. using PBS (Invitrogen) containing 0.05% surfactant P20 (Biacore) as running buffer.
(§2) Purified antibodies were captured in individual flow cells at a flow rate of 10 μl/minute. Injection time was varied for each antibody to yield an Rₘₐₓ between 30 and 90 RU. […] The dissociation phase was monitored for up to 900 seconds. The surface was then regenerated with two 60 second injections of glycine pH 2.25 (made from glycine pH 2.0 (Biacore) and pH 2.5 (Biacore)) at 30 μl/minute. Experiments were conducted using concentrations of rhFGFR2β-IIIb-cleaved between 20 and 1.25 nM (a two-fold serial dilution).
Kinetic parameters were determined using the kinetic function of the BlAevaluation software (Biacore) with double reference subtraction. Kinetic parameters for each antibody, kₐ (association rate constant), kd (dissociation rate constant) and KD (equilibrium dissociation constant) were determined.
A general note: In SPR one partner is held on a chip, and binding of the other changes the refractive index at the surface.

For experiment [2], the target named is T1, recombinant human FGFR2 beta (IIIb)/Fc …. As to the kind of experiment: SPR (Biacore T100), antibody captured on anti-human IgG Fc, rhFGFR2β-IIIb-cleaved as analyte, 37 C. How it is done:
as §1, §2

Experiment [3] deals with T2, recombinant human FGFR2 beta (IIIb)/Fc Chimera (human, UniProt P21802-3 152-378).
T2 construct: Bought from R&D Systems; the IIIb isoform applies; also called rhFGFR2β-IIIb-Fc; human FGFR2-IIIb; Fc part of the bought chimera not given
T2 sequence (P21802 other isoform, or with tags, fused parts or gaps mutant): as the sequence (P21802 other isoform, or with tags, fused parts or gaps limits assumed) above
As to the kind of experiment: SPR (Biacore T100), antibody captured on anti-mouse IgG, FGFR protein as analyte, 25 C. On the procedure: (§3) Rabbit anti-mouse IgGs (GE Healthcare) were immobilized on carboxymethylated dextran CM4 sensor chips (GE Healthcare) by amine coupling, using a standard coupling protocol, according to the vendor's instructions (GE Healthcare). The analyses were performed at 25° C. and 37° C., using PBS containing 0.05% surfactant P20 (GE Healthcare) as running buffer.
(§4) The antibodies were captured in individual flow cells at a flow rate of 10 μl/min. Injection time was varied for each antibody to yield an Rmax between 30 and 60 RU. […] The dissociation phase was monitored for up to 900 seconds. The surface was then regenerated with two 60-second injections of 10 mM Glycine-HCl (pH 1.7), at a flow rate of 60 μl/minute. The FGFR protein concentration range tested was 50 to 3.125 nM (two-fold dilutions).
(§5) Kinetic parameters were determined using the kinetic function of the BlAevalutation software (GE Healthcare) with double reference subtraction. Kinetic parameters for each antibody, kₐ (association rate constant), kd (dissociation rate constant) and KD (equilibrium dissociation constant) were determined.

Experiment [4] concerns the target T1, recombinant human FGFR2 beta (IIIb)/Fc …. The description is as above. On the procedure:
as §3, §4, §5

Experiment [5] has as its target T3, recombinant human FGFR1 beta (IIIb)/Fc Chimera (human, UniProt P11362-19 120-376).
T3 construct: Treated as one reagent; also called rhFGFR1β-IIIc-Fc; rhFGFR1β-IIIb-Fc; Fc part of the bought chimera not given
T3 sequence (looked up): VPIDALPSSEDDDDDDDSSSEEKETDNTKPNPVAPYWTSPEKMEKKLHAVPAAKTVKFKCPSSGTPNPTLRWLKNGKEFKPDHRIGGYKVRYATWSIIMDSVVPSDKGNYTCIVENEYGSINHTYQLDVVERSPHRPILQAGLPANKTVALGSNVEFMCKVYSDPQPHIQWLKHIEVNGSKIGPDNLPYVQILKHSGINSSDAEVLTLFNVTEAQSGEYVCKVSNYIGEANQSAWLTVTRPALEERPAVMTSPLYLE
The experiment is described as above. How it is done: as §3, §4, §5

For experiment [6], the target named is T2, recombinant human FGFR2 beta (IIIb)/Fc …. As to the kind of experiment: SPR (Biacore T100), antibody captured on anti-mouse IgG, FGFR protein as analyte, 37 C. How it is done: as §3, §4, §5
Experiment [7] has as its target T1, recombinant human FGFR2 beta (IIIb)/Fc …. The description is as above. On the procedure: as §3, §4, §5

B1: Hu4B9-82 (antibody)
heavy: not shown
light: EIVLTQSPATLSLSPGERATLSCRASSSVNYMYWYQQKPGQAPRPWIYLTSNRATGIPARFSGSGSGTDYTLTISSLEPEDFAVYYCQQWSSNPYTFGQGTKLEIKRTVAAPSVFIFPPSDEQLKSGTASVVCLLNNFYPREAKVQWKVDNALQSGNSQESVTEQDSKDSTYSLSSTLTLSKADYEKHKVYACEVTHQGLSSPVTKSFNRGEC
notes: Humanized IgG1 kappa
B1: in experiment [1], the Kd was determined as 0.49 nM, the dissociation rate constant (koff) was determined as 9.4e-05 s⁻¹ and the kon came to 190000 M⁻¹ s⁻¹. Moreover, in experiment [2], the Kd amounted to 0.93 nM, the dissociation rate constant (koff) was 0.00036 s⁻¹ and the association rate constant (kon) was 400000 M⁻¹ s⁻¹.

B2: Hu4B9-83 (antibody)
heavy: not shown
light: B1 light with Y70F
notes: Humanized IgG1 kappa
For B2, in experiment [1], the Kd worked out at 0.35 nM, the koff was determined as 8.9e-05 s⁻¹ and the on-rate (kon) was 260000 M⁻¹ s⁻¹. Moreover, in experiment [2], the Kd was determined as 0.92 nM, the off-rate constant (koff) worked out at 0.00029 s⁻¹ and the kon was determined as 320000 M⁻¹ s⁻¹.

B3: Hu4B9-65 (antibody)
heavy: not shown
light: B1 light with I57V
notes: Humanized IgG1 kappa
As to B3, in experiment [1], the Kd came to 0.26 nM, the off-rate constant (koff) turned out to be 6.5e-05 s⁻¹ and the kon is 240000 M⁻¹ s⁻¹. Moreover, in experiment [2], the equilibrium dissociation constant (Kd) is 0.89 nM, the koff worked out at 0.00028 s⁻¹ and the kon was found to be 370000 M⁻¹ s⁻¹.

B4: antibody 4B9 (antibody)
heavy: EVQLQQSGTVLARPGASVKMSCKTSGYTFTSYWMHWVKQRPGQGLEWIGAIYPGNSDTDYSQKFKGKATLTAVTSATTAYMELSSLTNEDSAVYYCSKFDYWGQGTTLTVSSAKTTPPSVYPLAPGSAAQTNSMVTLGCLVKGYFPEPVTVTWNSGSLSSGVHTFPAVLQSDLYTLSSSVTVPSSTWPSQTVTCNVAHPASSTKVDKKIVPRDCGCKPCICTVPEVSSVFIFPPKPKDVLTITLTPKVTCVVVDISKDDPEVQFSWFVDDVEVHTAQTQPREEQFNSTFRSVSELPIMHQDWLNGKEFKCRVNSAAFPAPIEKTISKTKGRPKAPQVYTIPPPKEQMAKDKVSLTCMITDFFPEDITVEWQWNGQPAENYKNTQPIMDTDGSYFVYSKLNVQKSNWEAGNTFTCSVLHEGLHNHHTEKSLSHSPGK
light: QIVLTQSPALMSASPGEKVTMTCSASSSVNYMYWYQQKPRSSPKPWIYLTSNLASGVPARFSGRGSGTSYSLTISSMEAEDAATYYCQQWSSNPYTFGGGTKLEIKRADAAPTVSIFPPSSEQLTSGGASVVCFLNNFYPRDINVKWKIDGSERQNGVLNSWTDQDSKDSTYSMSSTLTLTKDEYERHNSYTCEATHKTSTSPIVKSFNRNEC
notes: Murine IgG1 kappa from hybridoma clone 4B9; also called GP369; monoclonal antibody 4B9
For B4, the equilibrium dissociation constant (Kd) in experiment [3] stood at 0.61 nM; in experiment [4] it was 4.2 nM; in experiment [6], 2.96 nM; in experiment [7], 1.2 nM. The koff in experiment [3] is 4.6e-05 s⁻¹; in experiment [7], 0.000223 s⁻¹. Besides, the on-rate (kon) is 94000 M⁻¹ s⁻¹ in experiment [3] and 254000 M⁻¹ s⁻¹ in experiment [7]. In addition, the binding result in experiment [5] is recorded as “no binding (tested: 50 to 3.125 nM tested)”.
